Results from US9512172B2, “Ethanol dependence of alpha1 antitrypsin C-terminal Lys truncation by basic carboxypeptidases” (Baxalta Incorporated, priority 2006, dated 2016).

Columns and labels:
[1] = Percent C-terminal Lys truncated (des-Lys) A1PI in A1PI products; format: physicochemical, human; details: commercial product
Procedure: (§1) ARALAST® (Alpha1-Proteinase Inhibitor (Human)), Prolastin PROLASTIN® (Alpha1-Proteinase Inhibitor (Human)), and ZEMAIRA® (Alpha1-Proteinase Inhibitor (Human)) were analyzed by high-resolution IEF and high-performance size-exclusion chromatography (HP-SEC). Preparative separated isoforms from IEF were further purified by chromatography and subjected to mass spectrometry for sequence analyses, peptide mapping, and glycosylation analysis. Deamidation was quantified by enzymatic isoaspartate detection. Multiple sequence alignments and structural bioinformatics analyses were performed.

[2] = target: T1, CPN (Homo sapiens, UniProt P15169); assay: CPN-catalysed removal of C-terminal lysine from A1PI products, released Lys by HPLC; format: biochemical; design: purchased Elastin Company; details: for Ethanol concentration at which linear increase of Lys removal starts: incubation with CPN, 10 min
T1 sequence (P15169 21-458): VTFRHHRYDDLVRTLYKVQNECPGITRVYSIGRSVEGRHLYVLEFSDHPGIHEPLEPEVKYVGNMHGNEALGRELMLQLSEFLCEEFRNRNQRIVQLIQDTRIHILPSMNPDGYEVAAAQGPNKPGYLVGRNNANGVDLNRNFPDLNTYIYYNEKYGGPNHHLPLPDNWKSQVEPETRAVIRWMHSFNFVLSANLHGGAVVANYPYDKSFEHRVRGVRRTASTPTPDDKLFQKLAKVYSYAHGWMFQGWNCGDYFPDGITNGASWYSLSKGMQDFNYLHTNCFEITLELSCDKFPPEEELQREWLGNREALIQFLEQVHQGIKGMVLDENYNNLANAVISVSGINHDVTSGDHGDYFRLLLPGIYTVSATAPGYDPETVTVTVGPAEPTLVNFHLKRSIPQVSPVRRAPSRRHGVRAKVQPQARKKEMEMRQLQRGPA
T1 sequence (P22792 22-545 partner): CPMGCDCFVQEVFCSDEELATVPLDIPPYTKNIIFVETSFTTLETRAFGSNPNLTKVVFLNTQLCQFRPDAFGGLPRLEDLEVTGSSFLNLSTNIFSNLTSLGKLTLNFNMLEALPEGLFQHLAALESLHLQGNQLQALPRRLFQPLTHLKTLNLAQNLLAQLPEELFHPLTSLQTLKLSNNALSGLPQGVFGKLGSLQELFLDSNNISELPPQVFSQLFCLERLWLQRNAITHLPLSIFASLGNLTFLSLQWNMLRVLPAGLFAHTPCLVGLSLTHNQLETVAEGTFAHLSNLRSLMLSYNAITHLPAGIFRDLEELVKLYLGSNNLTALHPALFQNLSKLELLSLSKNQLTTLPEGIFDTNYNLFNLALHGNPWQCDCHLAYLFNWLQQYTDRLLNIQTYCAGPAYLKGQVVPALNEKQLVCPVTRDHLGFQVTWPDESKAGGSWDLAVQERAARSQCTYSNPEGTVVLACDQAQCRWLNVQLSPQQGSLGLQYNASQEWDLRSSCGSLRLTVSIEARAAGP
Procedure: The cleaved C-terminal lysine of A1PI was determined using automated orthophtalicdialdehyd (OPA) pre-column derivatization and high-performance liquid chromatography. The derivatization reagent was prepared by dissolving 100 mg of OPA in 2.5 mL of methanol by short ultrasonication, adding 23 mL of deoxygenated sodium borate buffer (0.2 mol/L, pH 9.0), 100 μl of 2-mercaptoethanol and 100 μl of Brij 35 as described^53. The system used was an ASTED HPLC system (Gilson, Paris) with Shimadzu RF-A fluorescence detector and a C-18 Chromolith ODS 4.7*100 mm column. A mixture of 50 mM KH2PO4, acetonitrile and methanol (ratio 50:24:26) was used as mobile phase and ornithine was used as internal standard.
To 30 μl 0.5 mM A1PI (using ARALAST® (Alpha1-Proteinase Inhibitor (Human)) or PROLASTIN® (Alpha1-Proteinase Inhibitor (Human))) 10 μl water or ethanol (different concentrations) was added. Afterwards 10 μl CPN (500 U/L) was added and after a 10 minutes incubation interval the reaction was stopped by adding 50 μl internal standard in 0.25 M HCl. The cleaved lysine was quantified as described above.

[3] = HP-SEC aggregate content of A1PI products; format: physicochemical
Procedure: as §1

[4] = target: T2, CPN present in the paste (Homo sapiens, UniProt P15169); assay: Effect of CP inhibitors on C-terminal lysine truncation in dissolved, ethanol-treated IV-1 paste (IEF); format: biochemical
T2 construct: Cohn IV-1 precipitate is usually derived after ethanol fractionation of plasma; from tissue; host or cells: Cohn IV-1 paste (ethanol precipitate of plasma)
T2 sequence (P15169 21-458): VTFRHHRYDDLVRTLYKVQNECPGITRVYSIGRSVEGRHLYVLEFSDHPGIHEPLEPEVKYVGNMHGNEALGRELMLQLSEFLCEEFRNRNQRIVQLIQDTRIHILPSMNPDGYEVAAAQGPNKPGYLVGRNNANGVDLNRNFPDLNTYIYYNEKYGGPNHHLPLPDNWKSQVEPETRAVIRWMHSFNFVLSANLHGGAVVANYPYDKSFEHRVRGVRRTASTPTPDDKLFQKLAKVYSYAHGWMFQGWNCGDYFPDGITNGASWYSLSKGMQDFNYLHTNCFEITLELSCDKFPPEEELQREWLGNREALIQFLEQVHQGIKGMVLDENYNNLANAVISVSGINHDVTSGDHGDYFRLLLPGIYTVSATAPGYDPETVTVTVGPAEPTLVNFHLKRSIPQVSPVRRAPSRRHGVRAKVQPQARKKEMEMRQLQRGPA
T2 sequence (P22792 22-545 partner): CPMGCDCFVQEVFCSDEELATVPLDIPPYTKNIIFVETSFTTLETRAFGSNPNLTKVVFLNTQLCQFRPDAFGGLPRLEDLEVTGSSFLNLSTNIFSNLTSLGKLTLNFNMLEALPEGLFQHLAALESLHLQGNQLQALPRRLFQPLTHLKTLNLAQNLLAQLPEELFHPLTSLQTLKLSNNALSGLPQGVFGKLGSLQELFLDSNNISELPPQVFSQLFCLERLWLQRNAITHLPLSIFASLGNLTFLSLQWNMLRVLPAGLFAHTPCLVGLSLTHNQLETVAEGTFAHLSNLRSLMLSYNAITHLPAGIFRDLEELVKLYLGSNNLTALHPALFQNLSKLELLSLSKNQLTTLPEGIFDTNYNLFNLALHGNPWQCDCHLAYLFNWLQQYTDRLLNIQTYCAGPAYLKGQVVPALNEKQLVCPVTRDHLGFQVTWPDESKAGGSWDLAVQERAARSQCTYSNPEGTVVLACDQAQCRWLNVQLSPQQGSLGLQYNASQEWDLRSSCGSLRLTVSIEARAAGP
Procedure: (§2) Cohn IV-1 paste was dissolved in 2.6 volumes of 10 mM Tris-buffer at pH 8.8 and incubated for 30 min at 22° C. The suspension was made 40% in ethanol (by addition of 2.4 volumes of ethanol), stirred for a further 60 min, diluted with the same Tris-buffer to 10% ethanol and extracted for a further 6 h.
The following inhibitors were added in parallel during extraction and dilution with Tris-buffer: 100 mM 6-aminocaproic acid, 10 μM or 1 nM 2-mercaptomethyl-3-guanidinoethylthiopropanoic acid (a more specific inhibitor of CPN). The samples were characterized by high resolution isoelectric focusing.
(§3) For high resolution isoelectric focusing a new hybrid IEF method using IPG-Immobiline gels (GE Healthcare Bio-Sciences, pI 4.2-4.9, Uppsala, Sweden) was developed which is similar to that described by Weidinger^54. Samples were diluted with water to 0.5 mg A1PI/mL and 5 mM DTE was added. Samples (20 μl) were applied close to the cathode on the pre-focused gel and focused for 150 min (5000 Vh). For paste extracts focusing time was extended to 420 min. Gels were stained with Coomassie Brilliant Blue G-250 (BioRad, Hercules, USA) as described by Neuhoff^55. Blotting and immunostaining were done with a rabbit anti-A1PI antibody (Rabbit Anti-Human Alpha-1-Antitrypsin, #A0012, DakoCytomation, Glostrup, Denmark).

[5] = test system: A1PI; assay: Incubation of purified non-truncated A1PI with carboxypeptidases, analysis by IEF; format: biochemical, human; details: for Lys truncation of A1PI by carboxypeptidase: A1PI in temporary contact with 40% ethanol, then diluted to 10% ethanol; for C-terminal lys removal from A1PI by carboxypeptidase: in the presence of only 10% ethanol
Procedure: A1PI solutions were incubated with different CPs. Temporary exposure to 40% ethanol was achieved by diluting the A1PI preparation (38 μM) with 96% ethanol. The precipitate formed was kept 30 min at −20° C. and a further 30 min at +4° C., before it was diluted with TRIS-HCl buffer (pH 8.8) to a final concentration of 10% ethanol. Concomitantly, CPs were added with the TRIS buffer and the reaction mixture containing 10 μM A1PI was then incubated at 37° C. for 60 min. Before IEF analysis dithioerythritol (DTE) was added to a final concentration of 5 mM. In addition, the incubation with CPs was done without ethanol or at 10% ethanol. Furthermore, we ran two concentration rows with either CPN (270-1 mU/ml) or CPM (250-10 mU/ml) after temporary exposure of A1PI to 40% ethanol (CPN units were tested against Hip-Arg).
as §3

[6] = test system: A1PI; assay: C-terminal Lys truncation of A1PI in dissolved Cohn IV-1 paste (IEF); format: biochemical, human; details: presence of only 10% ethanol; CPB added, CPN as present in the paste
Procedure: as §2
IV-1 paste was dissolved in 20.6 volumes of 10 mM Tris-buffer at pH 8.8 and incubated during 30 min at 22° C. The suspension was made 10% in ethanol (by addition of 2.4 volumes of ethanol) and stirred for a further 6 h at 22° C. and pH 8.8.
as §3

Molecule: ZEMAIRA: Alpha1-Proteinase Inhibitor (Human), approved plasma-derived A1PI concentrate
- Percent of A1PI C-terminal truncation as compared to total A1PI protein [1]: 6%

Molecule: PROLASTIN: Alpha1-Proteinase Inhibitor (Human), approved plasma-derived A1PI concentrate, purified from fraction IV-1
- Lys removed by CPN ([2]; absence of ethanol): very small amounts
- Ethanol concentration at which linear increase of Lys removal starts [2]: 5 % ethanol
- Aggregate content [3]: approximately 30%

Molecule: ARALAST: Alpha1-Proteinase Inhibitor (Human), approved plasma-derived A1PI concentrate, made from Cohn IV-1+IV-4 paste
- Ethanol concentration at which linear increase of Lys removal starts [2]: 10 % ethanol

Molecule: NCCCCCC(=O)O [6-amino caproic acid]
- Inhibition of Lys truncation induced by the procedure 40=>10% EtOH ([4]; dissolved IV-1 paste, pH 8.8, 6 h): could be inhibited
- Inhibition of lysine removal from A1PI ([4]; inhibitor at 100 mM): completely inhibited

B1: CPM: carboxypeptidase M, EC 3.4.17.12, recombinant, expressed in P. pastoris (protein, UniProt P14384 18-423, looked up)
Carboxypeptidase M: LDFNYHRQEGMEAFLKTVAQNYSSVTHLHSIGKSVKGRNLWVLVVGRFPKEHRIGIPEFKYVANMHGDETVGRELLLHLIDYLVTSDGKDPEITNLINSTRIHIMPSMNPDGFEAVKKPDCYYSIGRENYNQYDLNRNFPDAFEYNNVSRQPETVAVMKWLKTETFVLSANLHGGALVASYPFDNGVQATGALYSRSLTPDDDVFQYLAHTYASRNPNMKKGDECKNKMNFPNGVTNGYSWYPLQGGMQDYNYIWAQCFEITLELSCCKYPREEKLPSFWNNNKASLIEYIKQVHLGVKGQVFDQNGNPLPNVIVEVQDRKHICPYRTNKYGEYYLLLLPGSYIINVTVPGHDPHITKVIIPEKSQNFSALKKDILLPFQGQLDSIPVSNPSCPMIPLYRNLPDHS
- Carboxypeptidase concentration inducing 50% C-terminal A1PI truncation ([5]; 40% ethanol-pretreated purified A1PI): 50 mU/ml
- Lys truncation of A1PI by carboxypeptidase [5]: almost complete

B2: CPB: carboxypeptidase B, EC 3.4.17.2, small 35 kDa carboxypeptidase from pancreas (protein, UniProt P15086 111-417, looked up)
Carboxypeptidase B: ATGHSYEKYNKWETIEAWTQQVATENPALISRSVIGTTFEGRAIYLLKVGKAGQNKPAIFMDCGFHAREWISPAFCQWFVREAVRTYGREIQVTELLDKLDFYVLPVLNIDGYIYTWTKSRFWRKTRSTHTGSSCIGTDPNRNFDAGWCEIGASRNPCDETYCGPAAESEKETKALADFIRNKLSSIKAYLTIHSYSQMMIYPYSYAYKLGENNAELNALAKATVKELASLHGTKYTYGPGATTIYPAAGGSDDWAYDQGIRYSFTFELRDTGRYGFLLPESQIRATCEETFLAIKYVASYVLEHLY
- Lys truncation of A1PI in dissolved IV-1 paste by carboxypeptidase [6]: almost complete
- Lys truncation of A1PI by carboxypeptidase [5]: almost complete
- C-terminal lys removal from A1PI by carboxypeptidase [5]: completely truncate

B3: CPN: carboxypeptidase N, EC 3.4.17.3, basic carboxypeptidase of plasma (protein, UniProt P15169 21-458; P22792 22-545, looked up)
Carboxypeptidase N catalytic …: VTFRHHRYDDLVRTLYKVQNECPGITRVYSIGRSVEGRHLYVLEFSDHPGIHEPLEPEVKYVGNMHGNEALGRELMLQLSEFLCEEFRNRNQRIVQLIQDTRIHILPSMNPDGYEVAAAQGPNKPGYLVGRNNANGVDLNRNFPDLNTYIYYNEKYGGPNHHLPLPDNWKSQVEPETRAVIRWMHSFNFVLSANLHGGAVVANYPYDKSFEHRVRGVRRTASTPTPDDKLFQKLAKVYSYAHGWMFQGWNCGDYFPDGITNGASWYSLSKGMQDFNYLHTNCFEITLELSCDKFPPEEELQREWLGNREALIQFLEQVHQGIKGMVLDENYNNLANAVISVSGINHDVTSGDHGDYFRLLLPGIYTVSATAPGYDPETVTVTVGPAEPTLVNFHLKRSIPQVSPVRRAPSRRHGVRAKVQPQARKKEMEMRQLQRGPA
Carboxypeptidase N subunit 2: CPMGCDCFVQEVFCSDEELATVPLDIPPYTKNIIFVETSFTTLETRAFGSNPNLTKVVFLNTQLCQFRPDAFGGLPRLEDLEVTGSSFLNLSTNIFSNLTSLGKLTLNFNMLEALPEGLFQHLAALESLHLQGNQLQALPRRLFQPLTHLKTLNLAQNLLAQLPEELFHPLTSLQTLKLSNNALSGLPQGVFGKLGSLQELFLDSNNISELPPQVFSQLFCLERLWLQRNAITHLPLSIFASLGNLTFLSLQWNMLRVLPAGLFAHTPCLVGLSLTHNQLETVAEGTFAHLSNLRSLMLSYNAITHLPAGIFRDLEELVKLYLGSNNLTALHPALFQNLSKLELLSLSKNQLTTLPEGIFDTNYNLFNLALHGNPWQCDCHLAYLFNWLQQYTDRLLNIQTYCAGPAYLKGQVVPALNEKQLVCPVTRDHLGFQVTWPDESKAGGSWDLAVQERAARSQCTYSNPEGTVVLACDQAQCRWLNVQLSPQQGSLGLQYNASQEWDLRSSCGSLRLTVSIEARAAGP
- Lys truncation of A1PI in dissolved IV-1 paste by carboxypeptidase [6]: did not remove the C-terminal lysine
- C-terminal lysines cleaved from purified uncleaved A1PI ([5]; 50 mU CPN/ml): 10-20%
- Lys truncation of A1PI by carboxypeptidase [5]: ~60%
- C-terminal lys removal from A1PI by carboxypeptidase [5]: slightly
